Source: US20070077603A1 (published 2007)

How the values were obtained:
[1] = target: FXa/FVa (prothrombinase components) (UniProt P00742); test: cell-based or functional assay
[2] = target: FXa/FVa (prothrombinase components) (UniProt P00742 41-179; P00742 235-488; P12259 29-737; P12259 1574-2224); test: cell-based or functional assay
C4b-binding protein = target: T1, C4b-binding protein (human, UniProt P04003 49-597; P20851 18-252); test: complex in hirudin-plasma, Superose-6 gel filtration and immunoblot from native PAGE
T1 construct: Endogenous plasma protein; also called C4BP
T1 sequence (looked up) 1: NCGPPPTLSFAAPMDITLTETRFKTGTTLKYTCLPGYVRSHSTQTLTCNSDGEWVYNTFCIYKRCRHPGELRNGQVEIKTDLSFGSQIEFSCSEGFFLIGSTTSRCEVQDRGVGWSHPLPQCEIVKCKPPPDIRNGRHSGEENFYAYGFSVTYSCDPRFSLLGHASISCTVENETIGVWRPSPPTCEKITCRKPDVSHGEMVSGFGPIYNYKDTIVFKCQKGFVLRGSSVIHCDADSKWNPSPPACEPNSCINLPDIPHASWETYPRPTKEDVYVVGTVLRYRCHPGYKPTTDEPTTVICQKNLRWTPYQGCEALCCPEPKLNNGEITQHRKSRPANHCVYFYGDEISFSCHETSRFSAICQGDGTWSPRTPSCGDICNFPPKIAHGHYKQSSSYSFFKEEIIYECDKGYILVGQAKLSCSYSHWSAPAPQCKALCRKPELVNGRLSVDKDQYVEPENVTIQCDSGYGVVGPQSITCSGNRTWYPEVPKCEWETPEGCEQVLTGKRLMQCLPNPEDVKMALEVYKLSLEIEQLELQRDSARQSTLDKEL
T1 sequence (looked up) 2: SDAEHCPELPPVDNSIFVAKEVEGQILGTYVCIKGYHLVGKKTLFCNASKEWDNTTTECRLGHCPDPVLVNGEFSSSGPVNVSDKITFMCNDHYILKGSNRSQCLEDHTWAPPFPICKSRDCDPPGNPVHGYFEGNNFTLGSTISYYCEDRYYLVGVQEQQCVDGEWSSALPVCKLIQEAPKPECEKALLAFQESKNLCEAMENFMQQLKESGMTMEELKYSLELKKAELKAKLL
Method: Gel filtration - - - Purified protein S preparations or hirudin-plasma (200 μl ) were fractionated on a 1×30 cm Superose-6 HR column using Fast Performance Liquid Chromatography (Amersham-Pharmacia, Piscattaway, N.J.) at a flow rate of 0.4 ml/min in Hepes-buffered saline (HBS). Hirudin and citrated plasmas (300 ul) were each mixed with 700 μl of 50 mM benzamidine and fractionated on a 1.6×60 cm Sephacryl-300 column at a flow rate of 0.4 ml/min in Tris-buffered saline. Fractions were analyzed for protein S antigen by ELISA, for protein S multimers by native PAGE, and for PS-direct. ELISAs were also performed on the fractions for FV, FX, and C4BP antigens
Fractionation of plasma - - - When hirudin-plasma was gel-filtered on Superose-6 (FIG. 8A), forms that could be identified by immunoblotting from native PAGE were PS-C4BP complexes (fractions 31-39), followed by putative protein S multimers of three types (arrows), and monomeric protein S (fractions 47-54). A smeared band near the void volume marked with ? […] The original quantity of multimers may have been greater than seen in FIG. 8A, since there was evidence of dissociation to monomer in most fractions. […]

recombinant human Gas6 = target: T2, recombinant human Gas6 (human, UniProt Q14393 49-678, limits assumed); test: ligand blot from native 10% PAGE, biotin-DIP-FXa, streptavidin-HRP
T2 construct: Control vitamin K-dependent protein on the ligand blot (200 ng)
T2 sequence (looked up): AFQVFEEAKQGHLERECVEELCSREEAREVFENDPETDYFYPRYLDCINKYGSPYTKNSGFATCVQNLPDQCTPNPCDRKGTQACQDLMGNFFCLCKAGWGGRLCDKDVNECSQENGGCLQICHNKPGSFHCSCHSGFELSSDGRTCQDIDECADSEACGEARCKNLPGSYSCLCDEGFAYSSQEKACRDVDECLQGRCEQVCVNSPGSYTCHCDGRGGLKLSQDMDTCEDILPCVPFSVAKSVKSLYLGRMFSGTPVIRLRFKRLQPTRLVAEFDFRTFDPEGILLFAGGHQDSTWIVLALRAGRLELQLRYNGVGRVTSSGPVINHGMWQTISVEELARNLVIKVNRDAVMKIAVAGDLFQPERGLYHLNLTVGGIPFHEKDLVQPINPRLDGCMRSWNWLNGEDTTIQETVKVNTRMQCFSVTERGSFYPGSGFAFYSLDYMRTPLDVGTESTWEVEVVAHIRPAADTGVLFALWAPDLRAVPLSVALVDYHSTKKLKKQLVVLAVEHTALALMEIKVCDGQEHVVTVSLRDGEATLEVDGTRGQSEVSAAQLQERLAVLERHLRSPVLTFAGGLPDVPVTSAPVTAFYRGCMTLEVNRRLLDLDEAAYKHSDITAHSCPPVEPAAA
Method: (§1) For ligand blotting, FXa was treated with diisoproylfluorophosphate until >95% of its amidolytic activity was lost and then biotinylated as described (Heeb, et al. (1994) Proc. Natl. Acad. Sci. USA 91, 2728-2732). Blots containing 200 ng of protein S or control proteins were incubated with 3 μg/ml of this DIP-FXa for 1 h, followed by streptavidin-horse radish peroxidase (Pierce), chemiluminescent substrate and film exposure.
(§2) Ligand blotting of DIP-FXa to protein S monomers and dimers - - - Biotin-DIP-FXa could ligand blot to both protein S monomers and dimers, but not to two other vitamin K-dependent proteins (FIG. 3). DIP-FXa ligand blotted to monomers and multimers of protein S on native 10% PAGE, but not to human protein C or recombinant human Gas6. […] Note that protein S no. 1 has few monomers compared to protein S no. 2,and protein S no. 2 is <50% monomeric. (see FIG. 4).

human protein C = target: T3, human protein C (human, UniProt P04070 43-197; P04070 200-461); test: as above
T3 construct: Control vitamin K-dependent protein on the ligand blot (200 ng)
Method: as §1, §2

Sequence of FXa/FVa (prothrombinase components) (UniProt P00742) (P12259 29-737 limits assumed, chain 3 of 2): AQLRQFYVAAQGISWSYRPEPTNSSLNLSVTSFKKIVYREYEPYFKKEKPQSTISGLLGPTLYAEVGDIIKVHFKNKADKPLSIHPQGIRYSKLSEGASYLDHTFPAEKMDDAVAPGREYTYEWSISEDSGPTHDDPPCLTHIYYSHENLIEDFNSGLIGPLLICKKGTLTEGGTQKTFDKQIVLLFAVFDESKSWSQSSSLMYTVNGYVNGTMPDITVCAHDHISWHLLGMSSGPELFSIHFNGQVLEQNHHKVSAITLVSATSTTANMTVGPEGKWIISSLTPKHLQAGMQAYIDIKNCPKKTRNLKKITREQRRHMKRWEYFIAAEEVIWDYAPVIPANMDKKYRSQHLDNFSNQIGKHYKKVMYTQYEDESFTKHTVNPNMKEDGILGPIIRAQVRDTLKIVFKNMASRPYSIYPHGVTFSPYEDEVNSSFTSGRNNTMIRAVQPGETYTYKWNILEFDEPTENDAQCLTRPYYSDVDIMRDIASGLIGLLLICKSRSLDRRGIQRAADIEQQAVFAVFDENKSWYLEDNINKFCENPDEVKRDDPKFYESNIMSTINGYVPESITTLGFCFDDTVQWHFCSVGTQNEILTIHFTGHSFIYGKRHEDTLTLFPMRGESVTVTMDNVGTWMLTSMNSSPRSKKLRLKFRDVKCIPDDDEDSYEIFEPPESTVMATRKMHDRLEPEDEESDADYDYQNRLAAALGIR
Sequence of FXa/FVa (prothrombinase components) (UniProt P00742) (P12259 1574-2224 limits assumed, chain 4 of 2): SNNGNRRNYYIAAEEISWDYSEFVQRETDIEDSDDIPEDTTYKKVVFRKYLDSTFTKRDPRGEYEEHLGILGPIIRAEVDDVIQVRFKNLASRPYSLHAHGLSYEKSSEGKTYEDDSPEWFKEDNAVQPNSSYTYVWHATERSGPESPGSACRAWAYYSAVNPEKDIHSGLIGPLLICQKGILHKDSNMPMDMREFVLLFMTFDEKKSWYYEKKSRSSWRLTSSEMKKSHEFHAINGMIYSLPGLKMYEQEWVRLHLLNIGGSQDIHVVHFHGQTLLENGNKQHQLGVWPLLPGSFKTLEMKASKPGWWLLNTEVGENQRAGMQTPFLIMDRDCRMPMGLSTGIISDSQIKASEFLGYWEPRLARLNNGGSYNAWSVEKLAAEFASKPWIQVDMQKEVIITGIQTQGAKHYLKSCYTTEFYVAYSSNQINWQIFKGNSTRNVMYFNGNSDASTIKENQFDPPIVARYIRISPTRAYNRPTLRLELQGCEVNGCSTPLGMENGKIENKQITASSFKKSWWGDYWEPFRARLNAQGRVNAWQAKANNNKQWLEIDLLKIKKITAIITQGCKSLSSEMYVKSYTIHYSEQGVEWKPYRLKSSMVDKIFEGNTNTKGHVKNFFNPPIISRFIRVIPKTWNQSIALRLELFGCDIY
Sequence of FXa/FVa (prothrombinase components) (UniProt P00742 41-179; P00742 235-488; P12259 29-737; P12259 1574-2224) (P12259 29-737 limits assumed, chain 3 of 2): as the sequence (P12259 29-737 limits assumed, chain 3 of 2) above
Sequence of FXa/FVa (prothrombinase components) (UniProt P00742 41-179; P00742 235-488; P12259 29-737; P12259 1574-2224) (P12259 1574-2224 limits assumed, chain 4 of 2): as the sequence (P12259 1574-2224 limits assumed, chain 4 of 2) above
T3 sequence (P04070 43-197, chain 1 of 2): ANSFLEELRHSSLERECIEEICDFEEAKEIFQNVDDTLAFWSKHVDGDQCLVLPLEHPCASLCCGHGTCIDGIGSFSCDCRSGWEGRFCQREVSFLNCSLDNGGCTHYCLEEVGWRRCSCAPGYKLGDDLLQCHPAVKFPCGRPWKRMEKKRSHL
T3 sequence (P04070 200-461, chain 2 of 2): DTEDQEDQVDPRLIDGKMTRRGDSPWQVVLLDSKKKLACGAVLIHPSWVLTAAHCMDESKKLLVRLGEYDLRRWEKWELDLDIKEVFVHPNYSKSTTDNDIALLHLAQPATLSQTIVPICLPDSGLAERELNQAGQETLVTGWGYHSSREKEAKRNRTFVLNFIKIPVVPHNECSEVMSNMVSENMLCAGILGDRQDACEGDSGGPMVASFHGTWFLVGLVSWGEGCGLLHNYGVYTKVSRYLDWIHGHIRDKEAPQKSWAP

## protein S Dimer-Trimer fraction (from UniProt P07225 42-676)
[1]
  Inhibition of prothrombinase, IC50 @ 25 µM PL, nM (total moles of protein S monomeric subunits): 116 nM
  Inhibition of prothrombinase, IC50 @ 25 µM PL, nM of specific form: 46 nM

## protein S Trimer (from UniProt P07225 42-676)
[1]
  Inhibition of prothrombinase, IC50 @ 25 µM PL, nM (total moles of protein S monomeric subunits): 113 nM
  Inhibition of prothrombinase, IC50 @ 25 µM PL, nM of specific form: 38 nM

## protein S forms >Trimer (from UniProt P07225 42-676)
[1]
  Inhibition of prothrombinase, IC50 @ 25 µM PL, nM (total moles of protein S monomeric subunits): 111 nM
  Inhibition of prothrombinase, IC50 @ 25 µM PL, nM of specific form: 28 nM

B1: protein S monomers (purified) (other, UniProt P07225 42-676, looked up)
chain: ANSLLEETKQGNLERECIEELCNKEEAREVFENDPETDYFYPKYLVCLRSFQTGLFTAARQSTNAYPDLRSCVNAIPDQCSPLPCNEDGYMSCKDGKASFTCTCKPGWQGEKCEFDINECKDPSNINGGCSQICDNTPGSYHCSCKNGFVMLSNKKDCKDVDECSLKPSICGTAVCKNIPGDFECECPEGYRYNLKSKSCEDIDECSENMCAQLCVNYPGGYTCYCDGKKGFKLAQDQKSCEVVSVCLPLNLDTKYELLYLAEQFAGVVLYLKFRLPEISRFSAEFDFRTYDSEGVILYAESIDHSAWLLIALRGGKIEVQLKNEHTSKITTGGDVINNGLWNMVSVEELEHSISIKIAKEAVMDINKPGPLFKPENGLLETKVYFAGFPRKVESELIKPINPRLDGCIRSWNLMKQGASGIKEIIQEKQNKHCLVTVEKGSYYPGSGIAQFHIDYNNVSSAEGWHVNVTLNIRPSTGTGVMLALVSGNNTVPFAVSLVDSTSEKSQDILLSVENTVIYRIQALSLCSDQQSHLEFRVNRNNLELSTPLKIETISHEDLQRQLAVLDKAMKAKVATYLGGLPDVPFSATPVNAFYNGCMEVNINGVQLDLDEAISKHNDIRAHSCPSVWKKTKNS
[2]
  Inhibition of prothrombinase, IC50 @ 25 µM PL, nM (total moles of protein S monomeric subunits): 119 nM
  Inhibition of prothrombinase, IC50 @ 25 µM PL, nM of specific form: 119 nM of specific form

B2: monomeric protein S in plasma (other, human, UniProt P07225 42-676, looked up)
chain: ANSLLEETKQGNLERECIEELCNKEEAREVFENDPETDYFYPKYLVCLRSFQTGLFTAARQSTNAYPDLRSCVNAIPDQCSPLPCNEDGYMSCKDGKASFTCTCKPGWQGEKCEFDINECKDPSNINGGCSQICDNTPGSYHCSCKNGFVMLSNKKDCKDVDECSLKPSICGTAVCKNIPGDFECECPEGYRYNLKSKSCEDIDECSENMCAQLCVNYPGGYTCYCDGKKGFKLAQDQKSCEVVSVCLPLNLDTKYELLYLAEQFAGVVLYLKFRLPEISRFSAEFDFRTYDSEGVILYAESIDHSAWLLIALRGGKIEVQLKNEHTSKITTGGDVINNGLWNMVSVEELEHSISIKIAKEAVMDINKPGPLFKPENGLLETKVYFAGFPRKVESELIKPINPRLDGCIRSWNLMKQGASGIKEIIQEKQNKHCLVTVEKGSYYPGSGIAQFHIDYNNVSSAEGWHVNVTLNIRPSTGTGVMLALVSGNNTVPFAVSLVDSTSEKSQDILLSVENTVIYRIQALSLCSDQQSHLEFRVNRNNLELSTPLKIETISHEDLQRQLAVLDKAMKAKVATYLGGLPDVPFSATPVNAFYNGCMEVNINGVQLDLDEAISKHNDIRAHSCPSVWKKTKNS
notes: mature; also called monomers
C4b-binding protein
  binding result: binds

B3: protein S dimers (purified) (other, UniProt P07225 42-676, looked up)
chain: ANSLLEETKQGNLERECIEELCNKEEAREVFENDPETDYFYPKYLVCLRSFQTGLFTAARQSTNAYPDLRSCVNAIPDQCSPLPCNEDGYMSCKDGKASFTCTCKPGWQGEKCEFDINECKDPSNINGGCSQICDNTPGSYHCSCKNGFVMLSNKKDCKDVDECSLKPSICGTAVCKNIPGDFECECPEGYRYNLKSKSCEDIDECSENMCAQLCVNYPGGYTCYCDGKKGFKLAQDQKSCEVVSVCLPLNLDTKYELLYLAEQFAGVVLYLKFRLPEISRFSAEFDFRTYDSEGVILYAESIDHSAWLLIALRGGKIEVQLKNEHTSKITTGGDVINNGLWNMVSVEELEHSISIKIAKEAVMDINKPGPLFKPENGLLETKVYFAGFPRKVESELIKPINPRLDGCIRSWNLMKQGASGIKEIIQEKQNKHCLVTVEKGSYYPGSGIAQFHIDYNNVSSAEGWHVNVTLNIRPSTGTGVMLALVSGNNTVPFAVSLVDSTSEKSQDILLSVENTVIYRIQALSLCSDQQSHLEFRVNRNNLELSTPLKIETISHEDLQRQLAVLDKAMKAKVATYLGGLPDVPFSATPVNAFYNGCMEVNINGVQLDLDEAISKHNDIRAHSCPSVWKKTKNS
[2]
  Inhibition of prothrombinase, IC50 @ 25 µM PL, nM (total moles of protein S monomeric subunits): 109 nM
  Inhibition of prothrombinase, IC50 @ 25 µM PL, nM of specific form: 54 nM of specific form

B4: Biotin-DIP-FXa (enzyme)
chain 1: ANSFLEEMKKGHLERECMEETCSYEEAREVFEDSDKTNEFWNKYKDGDQCETSPCQNQGKCKDGLGEYTCTCLEGFEGKNCELFTRKLCSLDNGDCDQFCHEEQNSVVCSCARGYTLADNGKACIPTGPYPCGKQTLER
chain 2: IVGGQECKDGECPWQALLINEENEGFCGGTILSEFYILTAAHCLYQAKRFKVRVGDRNTEQEEGGEAVHEVEVVIKHNRFTKETYDFDIAVLRLKTPITFRMNVAPACLPERDWAESTLMTQKTGIVSGFGRTHEKGRQSTRLKMLEVPYVDRNSCKLSSSFIITQNMFCAGYDTKQEDACQGDSGGPHVTRFKDTYFVTGIVSWGEGCARKGKYGIYTKVTAFLKWIDRSMKTRGLPKAKSHAPEVITSSPLK
modifications: treated with diisoproylfluorophosphate until >95% of its amidolytic activity was lost and then biotinylated; biotinylated (sites not given)
notes: Used at 3 µg/ml as probe in ligand blots; also called FXa treated with diisopropylfluorophosphate and biotinylated
Recombinant human Gas6
  binding result: no binding
Human protein C
  binding result: no binding
